{
  "source": "patent US20160108115",
  "assay_in_all_cases": "SPR, pH 7.4",
  "details_in_all_cases": "remark: other sources report otherwise",
  "key": {"FcγRIIIb (human)": {"target": "FcγRIIIb (human) (UniProt O75015)", "sequence (O75015 17-200)": "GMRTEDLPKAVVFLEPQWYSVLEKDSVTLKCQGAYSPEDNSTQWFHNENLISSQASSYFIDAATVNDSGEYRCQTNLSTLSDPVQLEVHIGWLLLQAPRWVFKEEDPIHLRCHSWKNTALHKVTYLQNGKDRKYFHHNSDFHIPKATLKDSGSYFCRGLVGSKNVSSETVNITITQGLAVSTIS"}, "FcγRIIIa (human)": {"target": "FcγRIIIa (human) (UniProt P08637)", "sequence (P08637 17-208)": "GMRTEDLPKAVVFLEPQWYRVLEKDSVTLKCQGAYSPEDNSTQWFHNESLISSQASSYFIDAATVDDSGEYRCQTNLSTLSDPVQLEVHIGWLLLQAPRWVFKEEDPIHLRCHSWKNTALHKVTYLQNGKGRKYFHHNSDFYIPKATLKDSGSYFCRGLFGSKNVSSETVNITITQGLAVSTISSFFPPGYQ"}, "FcγRI (human)": {"target": "FcγRI (human) (UniProt P12314)", "sequence (P12314 16-288)": "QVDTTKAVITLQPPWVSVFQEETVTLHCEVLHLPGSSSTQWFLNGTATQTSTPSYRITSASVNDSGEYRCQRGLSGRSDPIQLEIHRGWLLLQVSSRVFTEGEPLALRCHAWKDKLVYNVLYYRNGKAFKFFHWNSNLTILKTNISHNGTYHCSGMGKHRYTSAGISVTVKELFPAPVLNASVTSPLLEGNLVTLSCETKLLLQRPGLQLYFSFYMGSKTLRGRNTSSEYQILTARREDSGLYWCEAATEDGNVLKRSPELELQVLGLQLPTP"}},
  "data": [
    {"substance": "eculizumab (full length)", "values": [
      {"measurement": "Kd", "setting": "FcγRIIIb (human)", "value": 3.49, "unit": "µM"},
      {"measurement": "Kd", "setting": "FcγRIIIa (human)", "value": 6.78, "unit": "µM"},
      {"measurement": "Kd", "setting": "FcγRI (human)", "value": 3.78, "unit": "µM"}
    ]}
  ]
}
